From patent US20130136748A1 (Ablynx, published 2013)
Several values for one entry are separate records, joined by “and”; a condition that tells them apart may be missing. Equal entries are not always repeated. Where two headings read alike, the source gives them in different places. One block for each binder: values may come before it.

Experiments:
[1] = biological target: T1, human HER3-Fc (R&D Systems, 348-RB) (human, UniProt P21860 20-643); assay: SPR, HER3-Fc captured by anti-Fc
T1 construct: Bought; also called hHER3-Fc; Fc-HER3; Fc part of the bought chimera not given, not described

hHER3 full length [2] = biological target: T2, hHER3 full length (human, UniProt P21860 20-1342); assay: FACS, 400 nM, competitor 17C08-biotin
T2 construct: On transfected CHO, CHO HER2/HER3, CHO EGFR/HER3 or CHO Flp-In cells; endogenous HER3 of MCF-7 and MDA-MB468 cells in the signalling assays; also called human HER3

hHER3 full length [3] = biological target: T2, hHER3 full length; assay: FACS, 400 nM, competitor 04F10-biotin
hHER3 full length [4] = biological target: T2, hHER3 full length; assay: FACS, 400 nM, competitor 04C07-biotin
human HER1 [5] = biological target: T3, human HER1 (human, UniProt P00533 25-1210); assay: FACS CHO-HER1, 2000 nM
T3 construct: also called EGFR; ErbB1

human HER4 [6] = biological target: T4, human HER4 (human, UniProt Q15303 26-1308); assay: FACS, CHO-HER4
[7] = biological target: T5, hHER3 ECD (human HER3 extracellular domain) (human, UniProt P21860 20-643); assay: ELISA, coated hHER3-ECD
T5 construct: also called recombinant HER3-ECD

hHER3 full length [8] = biological target: T2, hHER3 full length; assay: cell-based or functional assay
hHER3 full length [9] = biological target: T2, hHER3 full length; assay: FACS, 400 nM, competitor 23F05-biotin
[10] = biological target: T6, Chimeric chicken Her3-human domain 2 (AA207-328 human) (chicken/human chimera); assay: FACS, HEK293 with chimeric HER3
T6 construct: Transmembrane and extracellular regions, on HEK293 cells
T6 chain: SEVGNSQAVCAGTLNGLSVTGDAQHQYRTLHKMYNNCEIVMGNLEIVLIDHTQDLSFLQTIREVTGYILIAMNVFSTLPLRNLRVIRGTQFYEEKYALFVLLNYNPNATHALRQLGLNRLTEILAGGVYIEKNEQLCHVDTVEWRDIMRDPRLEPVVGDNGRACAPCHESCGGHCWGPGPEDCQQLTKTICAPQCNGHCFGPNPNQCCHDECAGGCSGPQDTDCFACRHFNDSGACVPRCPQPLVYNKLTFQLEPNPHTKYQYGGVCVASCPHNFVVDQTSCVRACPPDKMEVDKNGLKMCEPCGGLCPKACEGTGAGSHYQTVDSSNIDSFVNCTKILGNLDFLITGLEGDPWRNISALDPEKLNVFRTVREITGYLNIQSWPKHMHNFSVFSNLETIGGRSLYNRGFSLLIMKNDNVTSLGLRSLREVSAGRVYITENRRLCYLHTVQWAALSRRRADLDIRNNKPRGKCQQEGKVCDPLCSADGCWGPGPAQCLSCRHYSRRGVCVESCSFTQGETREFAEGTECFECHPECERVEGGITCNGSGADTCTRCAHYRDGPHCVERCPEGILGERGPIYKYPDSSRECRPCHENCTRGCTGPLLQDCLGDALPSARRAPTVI

human HER2 [11] = biological target: T7, human HER2 (human, UniProt P04626 23-1255); assay: FACS CHO-HER2, 2000 nM
T7 construct: also called hHER2

hHER3 full length [12] = biological target: T2, hHER3 full length; assay: FACS, 400 nM, competitor 21B02-biotin
human HER2 [13] = biological target: T7, human HER2; assay: FACS, CHO-HER2
human HER1 [14] = biological target: T3, human HER1; assay: FACS, CHO-HER1
human HER1 [15] = biological target: T3, human HER1; assay: FACS CHO-HER1, 667 nM
human HER2 [16] = biological target: T7, human HER2; assay: FACS CHO-HER2, 222 nM
human HER4 [17] = biological target: T4, human HER4; assay: FACS CHO-HER4, 222 nM
human HER4 [18] = biological target: T4, human HER4; assay: FACS CHO-HER4, 2000 nM
human HER4 [19] = biological target: T4, human HER4; assay: FACS CHO-HER4, 667 nM
human HER2 [20] = biological target: T7, human HER2; assay: FACS CHO-HER2, 667 nM
hHER3 full length [21] = biological target: T2, hHER3 full length; assay: cell-based or functional assay; remark: listed apart in the source
hHER3 full length [22] = biological target: T2, hHER3 full length; assay: FACS, 400 nM, competitor 18E08-biotin
[23] = biological target: T8, cHER3ECD (Maccaca fascicularis HER3 extracellular domain) (Macaca fascicularis, UniProt P21860 20-643 (human entry)); assay: ELISA, coated cHER3-ECD
T8 construct: also called cyno HER3ECD; cyno HER3-ECD
T8 chain: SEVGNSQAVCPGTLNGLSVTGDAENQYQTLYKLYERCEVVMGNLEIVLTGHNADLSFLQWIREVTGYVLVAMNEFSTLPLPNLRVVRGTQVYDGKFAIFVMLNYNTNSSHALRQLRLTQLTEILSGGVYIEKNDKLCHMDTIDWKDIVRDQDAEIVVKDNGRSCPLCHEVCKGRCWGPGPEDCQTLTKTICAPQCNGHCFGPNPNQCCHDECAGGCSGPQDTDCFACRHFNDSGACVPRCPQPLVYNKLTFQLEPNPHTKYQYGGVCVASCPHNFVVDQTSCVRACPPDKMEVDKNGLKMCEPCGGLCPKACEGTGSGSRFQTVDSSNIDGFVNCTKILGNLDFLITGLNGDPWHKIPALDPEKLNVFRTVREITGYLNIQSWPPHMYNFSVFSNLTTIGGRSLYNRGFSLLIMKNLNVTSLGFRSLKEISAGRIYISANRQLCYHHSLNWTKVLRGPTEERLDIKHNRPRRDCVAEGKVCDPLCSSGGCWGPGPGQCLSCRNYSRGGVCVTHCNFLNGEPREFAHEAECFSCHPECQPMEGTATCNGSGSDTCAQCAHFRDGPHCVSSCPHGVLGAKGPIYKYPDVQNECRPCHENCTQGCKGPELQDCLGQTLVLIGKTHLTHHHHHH

human HER1 [24] = biological target: T3, human HER1; assay: FACS CHO-HER1, 222 nM
[25] = biological target: T5, hHER3 ECD (human HER3 extracellular …); assay: SPR off rate on HER3-ECD
hHER3 full length [26] = biological target: T2, hHER3 full length; assay: FACS competition with HRG1-β1-EGF, CHO-HER3
[27] = biological target: T1, human HER3-Fc (R&D Systems, 348-RB); assay: HRG competition alphascreen
hHER3 full length [28] = biological target: T2, hHER3 full length; assay: cell-based or functional assay; remark: listed apart in the source
hHER3 full length [29] = biological target: T2, hHER3 full length; assay: cell-based or functional assay; remark: listed apart in the source
[30] = biological target: T5, hHER3 ECD (human HER3 extracellular …); assay: SPR off rate on HER3-ECD; remark: listed apart in the source
[31] = biological target: T1, human HER3-Fc (R&D Systems, 348-RB); assay: HRG competition alphascreen; remark: listed apart in the source
[32] = biological target: T1, human HER3-Fc (R&D Systems, 348-RB); assay: HRG competition alphascreen; remark: listed apart in the source

T4 sequence (Q15303 26-1308 limits assumed): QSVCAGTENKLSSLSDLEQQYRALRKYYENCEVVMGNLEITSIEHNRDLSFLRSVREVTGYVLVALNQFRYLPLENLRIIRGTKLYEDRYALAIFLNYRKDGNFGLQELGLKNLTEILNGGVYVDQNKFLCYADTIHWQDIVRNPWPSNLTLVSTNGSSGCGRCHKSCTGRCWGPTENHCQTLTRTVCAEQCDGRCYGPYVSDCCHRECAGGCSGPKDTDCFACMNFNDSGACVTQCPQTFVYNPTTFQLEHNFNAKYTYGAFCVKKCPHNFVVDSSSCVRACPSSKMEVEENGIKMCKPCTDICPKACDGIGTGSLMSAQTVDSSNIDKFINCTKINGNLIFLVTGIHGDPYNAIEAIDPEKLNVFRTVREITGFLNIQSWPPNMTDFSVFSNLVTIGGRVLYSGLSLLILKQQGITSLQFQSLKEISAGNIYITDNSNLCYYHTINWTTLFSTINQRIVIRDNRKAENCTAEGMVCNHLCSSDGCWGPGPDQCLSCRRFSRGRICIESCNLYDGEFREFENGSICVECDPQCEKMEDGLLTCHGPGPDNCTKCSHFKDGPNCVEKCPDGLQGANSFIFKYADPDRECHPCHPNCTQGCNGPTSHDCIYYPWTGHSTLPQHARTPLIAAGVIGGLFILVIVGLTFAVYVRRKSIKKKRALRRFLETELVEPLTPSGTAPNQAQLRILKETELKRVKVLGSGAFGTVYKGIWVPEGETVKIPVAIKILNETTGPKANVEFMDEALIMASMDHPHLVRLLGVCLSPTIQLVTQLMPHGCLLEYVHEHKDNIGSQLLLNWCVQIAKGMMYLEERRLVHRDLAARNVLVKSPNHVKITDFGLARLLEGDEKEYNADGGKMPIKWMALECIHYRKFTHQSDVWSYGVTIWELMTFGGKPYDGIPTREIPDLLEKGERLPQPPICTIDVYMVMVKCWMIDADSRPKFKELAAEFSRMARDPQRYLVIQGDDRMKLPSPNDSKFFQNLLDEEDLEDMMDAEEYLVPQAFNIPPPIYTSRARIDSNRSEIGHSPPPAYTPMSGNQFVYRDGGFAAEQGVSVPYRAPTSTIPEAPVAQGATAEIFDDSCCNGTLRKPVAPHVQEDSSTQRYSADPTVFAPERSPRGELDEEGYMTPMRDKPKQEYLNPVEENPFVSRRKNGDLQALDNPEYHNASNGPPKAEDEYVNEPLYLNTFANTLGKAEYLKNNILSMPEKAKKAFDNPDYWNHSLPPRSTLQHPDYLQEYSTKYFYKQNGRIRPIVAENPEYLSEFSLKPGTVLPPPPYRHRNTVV

- Kd [1]: 53.8 nM
- kon [1]: 10400 M⁻¹ s⁻¹
- % competition (hHER3 full length [2]): 63%
- % competition (hHER3 full length [3]): 0%
- % competition (hHER3 full length [4]): 0%
- MCF (human HER1 [5]): 64
- binding result (human HER4 [6]): no binding (tested: 2000 nM)
- EC50 [7]: 4.7 nM
- IC50, HRG1-β1 induced pHER3, MCF-7 (hHER3 full length [8]): 6.39e-08 M
- IC50, HRG1-β1 induced pHER3, MDA-MB468 (hHER3 full length [8]): 1.01e-07 M
- % competition (hHER3 full length [9]): 0%
- binding result [10]: binds
- MCF (human HER2 [11]): 78
- % competition (hHER3 full length [12]): 4%
- binding result (human HER2 [13]): no binding (tested: 2000 nM)
- binding result (human HER1 [14]): no binding (tested: 2000 nM)
- MCF (human HER1 [15]): 62
- MCF (human HER2 [16]): 53
- MCF (human HER4 [17]): 91
- MCF (human HER4 [18]): 115
- MCF (human HER4 [19]): 80
- MCF (human HER2 [20]): 52
- IC50, HRG1-β1 induced pAkt, MCF-7 (hHER3 full length [21]): 5.69e-08 M
- inhibition of HRG1-β1 induced pERK1/2, MCF-7 (hHER3 full length [21]): < 50 % inhibition
- % competition (hHER3 full length [22]): 86%
- EC50 [23]: 4.4 nM
- MCF (human HER1 [24]): 61
B1: 18E08 (VHH)
VHH: EVQLVESGGGLVQPGGSLRLSCAASGTLFKINAMGWYRQAPGKQRELVALITSSDTTDYAESVEGRFTISRDNTWNAVYLQMNSLKPEDTAVYYCHSDHYSMGVPEKRVIMYGQGTQVTVSS

- Kd [1]: 0.11 nM
- kon [1]: 390000 M⁻¹ s⁻¹
- % competition (hHER3 full length [2]): 0%
- % competition (hHER3 full length [3]): 68%
- koff [25]: 0.00018 s⁻¹ and 0.0002 s⁻¹
- IC50 (hHER3 full length [26]): 33.4 nM
- % competition (hHER3 full length [4]): 100%
- MCF (human HER1 [5]): 49
- binding result (human HER4 [6]): no binding (tested: 2000 nM)
- EC50 [7]: 0.63 nM
- IC50, HRG1-β1 induced pHER3, MCF-7 (hHER3 full length [8]): 5.34e-09 M
- IC50, HRG1-β1 induced pHER3, MDA-MB468 (hHER3 full length [8]): 2.79e-08 M
- % competition (hHER3 full length [9]): 0%
- MCF (human HER2 [11]): 134
- IC50 [27]: 0.78 nM
- % competition (hHER3 full length [12]): 0%
- binding result (human HER2 [13]): no binding (tested: 2000 nM)
- IC50, EGF induced pHER3, CHO EGFR/HER3 (hHER3 full length [28]): 3.43e-10 M
- IC50, TGFα induced pHER3, CHO EGFR/HER3 (hHER3 full length [28]): 8.15e-10 M
- IC50, epiregulin induced pHER3, CHO EGFR/HER3 (hHER3 full length [28]): 2.48e-10 M
- binding result (human HER1 [14]): no binding (tested: 2000 nM)
- MCF (human HER1 [15]): 64
- MCF (human HER2 [16]): 84
- MCF (human HER4 [17]): 142
- MCF (human HER4 [18]): 116
- MCF (human HER4 [19]): 90
- IC50 pHER3 blocking, HRG stimulated MCF7 (hHER3 full length [29]): 4.52e-09 M
- koff [30]: 0.00018 s⁻¹ and 0.0002 s⁻¹
- MCF (human HER2 [20]): 86
- IC50, HRG1-β1 induced pAkt, MCF-7 (hHER3 full length [21]): 7.83e-09 M
- IC50, HRG1-β1 induced pERK1/2, MCF-7 (hHER3 full length [21]): 2.36e-09 M
- % competition (hHER3 full length [22]): 0%
- EC50 [23]: 0.66 nM
- % inhibition [31]: 87%
- IC50 [31]: 0.755 nM
- IC50 [32]: 0.34 nM and 0.93 nM
- MCF (human HER1 [24]): 85
B2: 17B05 (VHH)
VHH: EVQLVESGGGLVQPGGSLRLSCAASGSIGGLNAMAWYRQAPGKERELVAGIFGVGSTRYADSVKGRFTISRDIAKNTVFLQMNSLNSEDTAVYYCRMSSVTRGSSDYWGQGTQVTVSS
notes: also called HER3MS17B05; HER3MS017B05
